Like-named read-outs stand apart in the source and are kept apart here.
Tests used:
[1] = molecular target: T1, vanC2 D-Ala-D-Ser ligase (EcfDdls) (Enterococcus casseliflavus, UniProt Q47720); assay: malachite green inorganic phosphate detection assay with purified enzyme; format: biochemical
T1 construct: C-terminal 6x His-tagged EcfDdls, strain SSK, ~39 kDa

N[C@H](CO)C(=O)O = assay: Michaelis-Menten kinetics (Km2), inorganic phosphate detection assay; format: biochemical, Enterococcus casseliflavus; conditions: ATP, MgCl2 subsite […] (second substrate binding site)
[2] = system: Nc1ncnc2c1ncn2[C@@H]1O[C@H](COP(=O)(O)OP(=O)(O)OP(=O)(O)O)[C@@H](O)[C@H]1O; assay: Michaelis-Menten kinetics (Km), inorganic phosphate detection assay; format: biochemical, Enterococcus casseliflavus; conditions: MgCl2
C[C@@H](N)C(=O)O = assay: Michaelis-Menten kinetics (Km1), inorganic phosphate detection assay; format: biochemical, Enterococcus casseliflavus; conditions: ATP, MgCl2 subsite […] (first substrate binding site)

T1 sequence (Q47720 whole entry): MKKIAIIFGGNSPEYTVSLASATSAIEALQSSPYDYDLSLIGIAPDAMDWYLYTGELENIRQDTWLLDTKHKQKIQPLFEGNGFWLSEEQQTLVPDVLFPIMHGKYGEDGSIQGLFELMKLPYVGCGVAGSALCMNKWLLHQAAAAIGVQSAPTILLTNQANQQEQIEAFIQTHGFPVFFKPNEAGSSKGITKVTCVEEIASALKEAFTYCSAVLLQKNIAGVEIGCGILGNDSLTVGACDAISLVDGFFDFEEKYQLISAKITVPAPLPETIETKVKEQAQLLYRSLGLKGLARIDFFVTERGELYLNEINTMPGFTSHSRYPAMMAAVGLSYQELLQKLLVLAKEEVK

## Cc1cc(CN2CCN(Cc3nc(C(C)C)no3)CC2)no1 [CID 45805715, 1-[(5-methyl-1,2-oxazol-3-yl)methyl]-4-{[3-(propan-2-yl)-1,2,4-oxadiazol-5-yl]methyl}piperazine]
[1]; read-out: IC50
  IC50: 76.7 ± 1.01 µM

## vanC2 D-Ala-D-Ser ligase (EcfDdls) (Enterococcus casseliflavus)
N[C@H](CO)C(=O)O
  Km: 800 ± 100 µM
[2]
  Km: 24.31 ± 4.1 µM
C[C@@H](N)C(=O)O
  Km: 1120 ± 100 µM

## N[C@@H]1CON=C1O [DCS, D-cycloserine]
[1]
  IC50: 313 ± 1.6 µM

From article PMC12004154, “Overexpression, Purification, and Biochemical Characterization of the vanC2 D-Ala-D-Ser Ligase from Enterococcus casseliflavus SSK and Its Inhibition by an Oxadiazole Derivative” (ACS Omega, 2025)
